In publication PMC13193136 one finds binding signal (fold signal vs intact duplex) and binding signal (fold (reference)) data, which are given here for 2 substances.

In this data set the test system is SOX2 DNA-binding domain (human). Description: PIC-NIC microarray. The settings on record: Protein-specific binding buffers (Supplementary Methods, not in the material), PBM incubation 1 h at room temperature, hybridization simulated at 150 mM Na+ ….

On to SOX2 site nick 3, 5'P retained, for which, for the setting “nick at position 3, 5' phosphate”, the binding signal (fold signal vs intact duplex) is 3. Take SOX2 site intact: the binding signal (fold (reference)) was 1.
